Columns and labels:
Assay in all cases: cell-based or functional assay
HIV-1 Env of THRO.18 = HIV-1 Env of THRO.18 (HIV-1)
HIV-1 Env of BG505.w6m = HIV-1 Env of BG505.w6m (HIV-1)
HIV-1 Env of 0260.v5.c36 = HIV-1 Env of 0260.v5.c36 (HIV-1)
HIV-1 Env of 191821.E6.1 = HIV-1 Env of 191821.E6.1 (HIV-1)
HIV-1 Env of 96ZM651.02 = HIV-1 Env of 96ZM651.02 (HIV-1)
HIV-1 Env of DU422.01 = HIV-1 Env of DU422.01 (HIV-1)
HIV-1 Env of RHPA.7 = HIV-1 Env of RHPA.7 (HIV-1)
HIV-1 Env of ZM214.15 = HIV-1 Env of ZM214.15 (HIV-1)
HIV-1 Env of WITO.33 = HIV-1 Env of WITO.33 (HIV-1)
HIV-1 Env of Q168.a2 = HIV-1 Env of Q168.a2 (HIV-1)
HIV-1 Env of Q842.d12 = HIV-1 Env of Q842.d12 (HIV-1)
HIV-1 Env of UG037.8 = HIV-1 Env of UG037.8 (HIV-1)
HIV-1 Env of 6535.3 = HIV-1 Env of 6535.3 (HIV-1)
HIV-1 Env of Q259.d2.17 = HIV-1 Env of Q259.d2.17 (HIV-1)
HIV-1 Env of MB201 = HIV-1 Env of MB201 (HIV-1)
HIV-1 Env of CAP210.E8 = HIV-1 Env of CAP210.E8 (HIV-1)
HIV-1 Env of REJO.67 = HIV-1 Env of REJO.67 (HIV-1)
HIV-1 Env of Q769.d22 = HIV-1 Env of Q769.d22 (HIV-1)
HIV-1 Env of KER2008.12 = HIV-1 Env of KER2008.12 (HIV-1)
HIV-1 Env of DU172.17 = HIV-1 Env of DU172.17 (HIV-1)
HIV-1 Env of Q23.17 = HIV-1 Env of Q23.17 (HIV-1)
HIV-1 Env of RW020.2 = HIV-1 Env of RW020.2 (HIV-1)
HIV-1 Env of ZM109.4 = HIV-1 Env of ZM109.4 (HIV-1)
HIV-1 Env of CAP256.PI = HIV-1 Env of CAP256.PI (HIV-1)
HIV-1 Env of MB539.2B7 = HIV-1 Env of MB539.2B7 (HIV-1)
HIV-1 Env of CM244.ec1 = HIV-1 Env of CM244.ec1 (HIV-1)
HIV-1 Env of TRO.11 = HIV-1 Env of TRO.11 (HIV-1)
HIV-1 Env of SC422.8 = HIV-1 Env of SC422.8 (HIV-1)
HIV-1 Env of CAP256.SU = HIV-1 Env of CAP256.SU (HIV-1)
HIV-1 Env of ZM249.1 = HIV-1 Env of ZM249.1 (HIV-1)
HIV-1 Env of CAP244.D3 = HIV-1 Env of CAP244.D3 (HIV-1)
HIV-1 Env of CAP45.G3 = HIV-1 Env of CAP45.G3 (HIV-1)
HIV-1 Env of AC10.29 = HIV-1 Env of AC10.29 (HIV-1)
HIV-1 Env of Q461.e2 = HIV-1 Env of Q461.e2 (HIV-1)
HIV-1 Env of ZM233.6 = HIV-1 Env of ZM233.6 (HIV-1)
HIV-1 Env of PVO.04 = HIV-1 Env of PVO.04 (HIV-1)
HIV-1 Env of QH0692.42 = HIV-1 Env of QH0692.42 (HIV-1)
HIV-1 Env of CAAN.A2 = HIV-1 Env of CAAN.A2 (HIV-1)
HIV-1 Env of TRJO.58 = HIV-1 Env of TRJO.58 (HIV-1)
HIV-1 Env of 6405.v4.c34 = HIV-1 Env of 6405.v4.c34 (HIV-1)
HIV-1 Env of DU156.12 = HIV-1 Env of DU156.12 (HIV-1)
HIV-1 Env of C1080.c3 = HIV-1 Env of C1080.c3 (HIV-1)
HIV-1 Env of ZM135.10a = HIV-1 Env of ZM135.10a (HIV-1)
HIV-1 Env of ZM197.7 = HIV-1 Env of ZM197.7 (HIV-1)
HIV-1 Env of KER2018.11 = HIV-1 Env of KER2018.11 (HIV-1)
HIV-1 Env of 3016.V5.c36 = HIV-1 Env of 3016.V5.c36 (HIV-1)
HIV-1 Env of ZM53.12 = HIV-1 Env of ZM53.12 (HIV-1)

B1: CAP256-VRC26.07 (antibody, V domains shown)
VH: EVQLVESGGGVVQPGRSLRLSCVGSQFSFNRYGMHWVRQAPGKGLEWVAGISFDGTDRYHADNVWGRFTISRDNSKNTLYLQMSSLRAEDTALYYCAKDLREDECEEWWSDYYDFGKKLPCRKSRGVAGVFDKWGQGTMVTVSS
VL: QAVLTQPPSVSAAPGQNVTISCSGSGSNIGNNFVSWYQQRPGTAPKLLIYESNKRPSGIPDRFSGSKSGTSATLAITGLQTGDEAYYYCATWAARLNSARVFGTGTMVTVLG
neutralization IC50 (HIV-1 Env of THRO.18): > 50 µg/mL
neutralization IC50 (HIV-1 Env of BG505.w6m): > 50 µg/mL
neutralization IC50 (HIV-1 Env of 0260.v5.c36): > 50 µg/mL
neutralization IC50 (HIV-1 Env of 191821.E6.1): > 50 µg/mL
neutralization IC50 (HIV-1 Env of 96ZM651.02): > 50 µg/mL
neutralization IC50 (HIV-1 Env of DU422.01): > 50 µg/mL
neutralization IC50 (HIV-1 Env of RHPA.7): > 50 µg/mL
neutralization IC50 (HIV-1 Env of ZM214.15): > 50 µg/mL
neutralization IC50 (HIV-1 Env of WITO.33): > 50 µg/mL
neutralization IC50 (HIV-1 Env of Q168.a2): > 50 µg/mL
neutralization IC50 (HIV-1 Env of Q842.d12): > 50 µg/mL
neutralization IC50 (HIV-1 Env of UG037.8): > 50 µg/mL
neutralization IC50 (HIV-1 Env of 6535.3): > 50 µg/mL
neutralization IC50 (HIV-1 Env of Q259.d2.17): 42.5 µg/mL
neutralization IC50 (HIV-1 Env of MB201): > 50 µg/mL
neutralization IC50 (HIV-1 Env of CAP210.E8): 0.021 µg/mL
neutralization IC50 (HIV-1 Env of REJO.67): > 50 µg/mL
neutralization IC50 (HIV-1 Env of Q769.d22): > 50 µg/mL
neutralization IC50 (HIV-1 Env of KER2008.12): > 50 µg/mL
neutralization IC50 (HIV-1 Env of DU172.17): > 50 µg/mL
neutralization IC50 (HIV-1 Env of Q23.17): > 50 µg/mL
neutralization IC50 (HIV-1 Env of RW020.2): > 50 µg/mL
neutralization IC50 (HIV-1 Env of ZM109.4): > 50 µg/mL
neutralization IC50 (HIV-1 Env of CAP256.PI): > 50 µg/mL
neutralization IC50 (HIV-1 Env of MB539.2B7): > 50 µg/mL
neutralization IC50 (HIV-1 Env of CM244.ec1): 40.1 µg/mL
neutralization IC50 (HIV-1 Env of TRO.11): > 50 µg/mL
neutralization IC50 (HIV-1 Env of SC422.8): > 50 µg/mL
neutralization IC50 (HIV-1 Env of CAP256.SU): 0.008 µg/mL
neutralization IC50 (HIV-1 Env of ZM249.1): 44.1 µg/mL
neutralization IC50 (HIV-1 Env of CAP244.D3): > 50 µg/mL
neutralization IC50 (HIV-1 Env of CAP45.G3): > 50 µg/mL
neutralization IC50 (HIV-1 Env of AC10.29): > 50 µg/mL
neutralization IC50 (HIV-1 Env of Q461.e2): > 50 µg/mL
neutralization IC50 (HIV-1 Env of ZM233.6): > 50 µg/mL
neutralization IC50 (HIV-1 Env of PVO.04): > 50 µg/mL
neutralization IC50 (HIV-1 Env of QH0692.42): > 50 µg/mL
neutralization IC50 (HIV-1 Env of CAAN.A2): > 50 µg/mL
neutralization IC50 (HIV-1 Env of TRJO.58): > 50 µg/mL
neutralization IC50 (HIV-1 Env of 6405.v4.c34): > 50 µg/mL
neutralization IC50 (HIV-1 Env of DU156.12): > 50 µg/mL
neutralization IC50 (HIV-1 Env of C1080.c3): > 50 µg/mL
neutralization IC50 (HIV-1 Env of ZM135.10a): > 50 µg/mL
neutralization IC50 (HIV-1 Env of ZM197.7): > 50 µg/mL
neutralization IC50 (HIV-1 Env of KER2018.11): 3.1 µg/mL
neutralization IC50 (HIV-1 Env of 3016.V5.c36): > 50 µg/mL
neutralization IC50 (HIV-1 Env of ZM53.12): 0.014 µg/mL
